Test results taken from patent publication US9125896B2.

Experiments:
[1] = biological target: human epidermal growth factor receptor (EGFR) (human) (UniProt P00533)
[2] = biological target: human epidermal growth factor receptor (EGFR) (human) (UniProt P00533); remark: listed apart in the source
[3] = biological target: human epidermal growth factor receptor (EGFR) (human) (UniProt P00533); remark: listed apart in the source

Row | EC50 (nM), inhibition of basal proliferation of NCI-H292 cells (WST-8, 5 days) [1] [nM] | Maximal inhibition (%) of basal proliferation of NCI-H292 cells [1] [%] | EC50 (nM), inhibition of basal proliferation of HCC827 cells (WST-8, 5 days) [2] [nM] | Maximal inhibition (%) of basal proliferation of HCC827 cells [2] [%] | EC50 (nM), H292 tumor cell growth inhibition (Example 11, WST-8) [3] [nM] | Binder
1 | 5.6 | 65 | 0.3 | 72 | 2.59 | muEGFR-6 (antibody, V domains shown) VH: QVQLQQSGAELARPGASVKLSCKASGYTFTSYWMQWVKQRPGQGLECIGALYPGDGDARYTQKFKGKATLTADRSSSTAYMQLSSLASEDSAVYYCARYDAPGYAMDYWGQGTSVTVAS VL: DIQMTQSPSSLSASLGGKVTITCKASQDINNYIAWYQHKPGKGPRLLIHYTSTLHPGIPSRFSGSGSGRDYSFSISNLEPEDIATYYCLQYDNLLYTFGGGTKLEIKR
2 | 0.4 | 77 | 0.03 | 72 | 0.21 | muEGFR-7 (antibody, V domains shown) VH: QVQLQQSGAELARPGASVKLSCKASGYTFTSYWMQWVKQRPGQGLECIGTIYPGDGDTTYTQKFKGKATLTADKSSSTAYMQLSSLASEDSAVYYCARYDAPGYAMDYWGQGTSVTVSS VL: DIQMTQSPSSLSASLGGKVTITCKASQDINNYLAWYQHKPGKGPRLLIHYTSTLHPGIPSRFSGSGSGRDYSFSISNLEPEDIATYYCLQYDNLLYTFGGGTKLEIKR
